Consider one substance from doi:10.1101/2021.04.07.438776.

The test concerns the target N-terminal 6X-His-Tagged Caspar (Drosophila). The test is described as follows: SEC. For orientation: Size exclusion chromatography separates by hydrodynamic size, large species first.

Substance “N-terminal 6X-His-Tagged Caspar (natural protein)” displayed a stoichiometry N of 2.

What is called stoichiometry N is the number of molecules, sites or subunits per partner or assembly.
